Blank lines part the entries; values can stand above or below the binder they belong to.
Key:
[1] = biological target: T1, CD27 expressed on the cell surface (HT1080_CD27 cells) (human, UniProt P26842 20-260); assay: cell-based or functional assay
T1 sequence (looked up): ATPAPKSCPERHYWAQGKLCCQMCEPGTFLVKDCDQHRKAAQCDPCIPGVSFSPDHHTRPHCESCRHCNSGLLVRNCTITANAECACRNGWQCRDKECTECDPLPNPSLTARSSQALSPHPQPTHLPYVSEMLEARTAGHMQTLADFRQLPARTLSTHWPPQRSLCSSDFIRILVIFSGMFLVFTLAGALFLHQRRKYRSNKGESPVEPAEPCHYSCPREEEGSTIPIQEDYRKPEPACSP

[2] = biological target: T2, CD27 protein (His-tagged, Sino Biological Inc. 10039-H08B1) (human, UniProt P26842 20-192); assay: ELISA on coated His-tagged CD27
T2 construct: bought; coated onto ELISA plates; also called human CD27; recombinant protein; not shown: His tag
T2 sequence (looked up): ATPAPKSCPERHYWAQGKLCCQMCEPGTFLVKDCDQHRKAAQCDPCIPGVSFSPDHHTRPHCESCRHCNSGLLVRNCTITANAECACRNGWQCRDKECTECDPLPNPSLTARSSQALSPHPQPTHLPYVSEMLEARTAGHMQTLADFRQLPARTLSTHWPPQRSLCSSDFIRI

[3] = biological target: T1, CD27 expressed on the cell surface …; assay: cellular binding assay, HT1080_CD27 cells
Further: test concentration or dose not given here.

- IL-8, cross-linked by F(ab')2 fragment [abs. corr.] [1]: 1.48 abs. corr.
- IL-8 [abs. corr.] [1]: 0.394 abs. corr.
- ELISA [abs. corr.] [2]: 3.52 abs. corr.
- Cellular binding assay [RFU] [3]: 337 RFU
B1: P018.S.03.A.C04 (antibody, V domains shown)
VH: QSVEESGGRLVTPGTPLTLTCTVSGVDLSRYAMSWVRQAPGEGLEWIGTIWYSGTTYYASWAKGRFTISKTSSTTVDLKMTSLTAADTATYFCARDPLYVGGNSGSDLWGPGTLVTVSS
VL: DVVMTQTPASVSAAVGGTVTINCQASQSIGSSLAWYQQKPGQRPKLLIYYASTLASGVPSRFSGSGSGTEFTLTISDLESADAATYYCQSNYGAASSSYGAFGGGTEVVVK
notes: V regions on human Ig constant parts; also called AB27_45

- IL-8, cross-linked by F(ab')2 fragment [abs. corr.] [1]: 1.33 abs. corr.
- IL-8 [abs. corr.] [1]: 0.209 abs. corr.
- ELISA [abs. corr.] [2]: 3.22 abs. corr.
- Cellular binding assay [RFU] [3]: 420 RFU
B2: P018.S.01.A.E05 (antibody, V domains shown)
VH: QEQLVESGGGLVQPEGSLTLTCTASGFSFSSRYYMCWVRQAPGKGLEWIACIAPDVSGSAYYATWAKGRITISETSSTTVTLRMTSLTAADTAIYFCARSVPGSLFYFQLWGPGTVVTVSS
VL: AAVLTQTPPSVSAAVGGTVTIKCQSSQSVYNKNEFSWYQQKPGQPPKLLIYDASTLASGVPSRFKGSGSGTQFTLTISDLESDDAATYYCQGSYYSSGSYTAFGGGTEVVVK
notes: V regions on human Ig constant parts; also called AB27_17

- IL-8, cross-linked by F(ab')2 fragment [abs. corr.] [1]: 1.62 abs. corr.
- IL-8 [abs. corr.] [1]: 0.4 abs. corr.
- ELISA [abs. corr.] [2]: 3.23 abs. corr.
- Cellular binding assay [RFU] [3]: 350 RFU
B3: P018.S.02.A.A01 (antibody, V domains shown)
VH: QSVEESGGRLVTPGTPLTLTCTVSGIDLSRYAMGWVRQAPGKGLEYIGIISSSGSTYYASWIKGRFTISKTSTTVDLKITSPTTEDTATYFCARSPYASTSASAFNLWGPGTLVTVSS
VL: AFELTQTPSSVEAAVGGTVTIKCQASQSISSWLSWYQQKPGQPPKLLIYEASKLASGVPSRFKGSGSGTQFTLTISDLESADAATYYCQSYSSTTTNTFGGGTEVVVK
notes: V regions on human Ig constant parts; also called AB27_27

- IL-8, cross-linked by F(ab')2 fragment [abs. corr.] [1]: 2.1 abs. corr.
- IL-8 [abs. corr.] [1]: 1.57 abs. corr.
- ELISA [abs. corr.] [2]: 3.25 abs. corr.
- Cellular binding assay [RFU] [3]: 144 RFU
B4: P018.S.10.A.H02 (antibody, V domains shown)
VH: QSLEESGGRLVTPGGSLTLTCTVSGIDLSSYAMGWFRQAPGKGLEYIGIIYSSGSTWFANWVKGRFTISKTSTTVDLKMTSLTTEDTATYFCARYSAADHGDKFKLWGQGTLVTVSS
VL: AAVLTQTPSPVSAAVGGTVSISCQSSKNIFDNTRLSWFQQKPGQPPKQLIYGASTLASGVPSRFSGSGSGTQFTLTISGVQSDDAATYYCLGEYSSDSDTSFGGGTEVVVK
notes: V regions on human Ig constant parts; also called AB27_185

- IL-8, cross-linked by F(ab')2 fragment [abs. corr.] [1]: 1.97 abs. corr.
- IL-8 [abs. corr.] [1]: 0.394 abs. corr.
- ELISA [abs. corr.] [2]: 3.28 abs. corr.
- Cellular binding assay [RFU] [3]: 338 RFU
B5: P018.S.04.A.B03 (antibody, V domains shown)
VH: QSLEESGGRLVTPGTPLTLTCTASGFSLSSYDMSWVRQAPGKGLEWIGYIWSDGDTDYANWAIGRFTISKTSTTVDLKMTSPTTEDTATYFCARGYTNYDLWGQGTLVTVSS
VL: AAVLTQTPSSVSAAVGGTVTISCQSSQSLYSDPYLSWHQQKPGQPPKRLIYQASTLASGVSSRFKGSGSGTEYTLTISDVQSDDAATYFCQGTYYSDGWYSDFGGGTEVVVK
notes: V regions on human Ig constant parts; also called AB27_67

- IL-8, cross-linked by F(ab')2 fragment [abs. corr.] [1]: 1.03 abs. corr.
- IL-8 [abs. corr.] [1]: 0.236 abs. corr.
- ELISA [abs. corr.] [2]: 3.24 abs. corr.
- Cellular binding assay [RFU] [3]: 315 RFU
B6: P018.S.01.A.A04 (antibody, V domains shown)
VH: QSVEESGGRLVTPGTPLTLTCTVSGFSLSRYWVSWVRQAPGKGLEAIGVIDNGDTAYYASWAKGRFTISKTSSITVDLKMTSLTTEDTATYFCTREGADHSGQDLWGQGTLVTVSS
VL: AAVLTQTPSPVSAAVGGTVTINCQASQSVISNNDLSWYQQKPGQPPKLLIYRASNLASGVPSRFEGSGSGTQFTLTISDLESEDAATYYCQGGYAGIVDRRPFGGGTEVVVK
notes: V regions on human Ig constant parts; also called AB27_1

- IL-8, cross-linked by F(ab')2 fragment [abs. corr.] [1]: 1.37 abs. corr.
- IL-8 [abs. corr.] [1]: 0.569 abs. corr.
- ELISA [abs. corr.] [2]: 3.27 abs. corr.
- Cellular binding assay [RFU] [3]: 390 RFU
B7: P018.S.02.A.D04 (antibody, V domains shown)
VH: QEQLVESGGGLVQPEGSLTLTCTASALSFYSAWICWVRQAPGKGLKWIACIYAGGSRSTYYATWATGRFTISEASSTTVTLQMTSLTAADTATYFCARSLSADTYWNLWGPGTLVTVSS
VL: DVVMTQTPASVEAAVGGTVTIKCQASESISSWLAWYQQKPGQPPKLLIYRASTLESGVPSRFKGSGSGTEFTLTISDLESADAATYYCQNNGGGTSGYTFGGGTEVVVK
notes: V regions on human Ig constant parts; also called AB27_33

- IL-8, cross-linked by F(ab')2 fragment [abs. corr.] [1]: 1.69 abs. corr.
- IL-8 [abs. corr.] [1]: 0.173 abs. corr.
- ELISA [abs. corr.] [2]: 3.23 abs. corr.
- Cellular binding assay [RFU] [3]: 331 RFU
B8: P018.S.06.A.H04 (antibody, V domains shown)
VH: QEKLEESGGGLVKPGGSLTLPCTASGFTLSSRYYMCWVRQAPGKGLEWIGCIYAGSLRTWYASWAKGRFTISKTSSTTVTLQMTSLTAADTATYFCARSPGVAASYPELWGPGTLVTVSS
VL: AQVLTQTPSSVAAAVGGTVSISCQSSQSVGNADNLAWYQQKPGQPPNLLIYYAASLASGVPSRFKGSGSGTQFTLTISDLESDDAATYYCGGGYYNSTDTFYTFGGGTEVVVK
notes: V regions on human Ig constant parts; also called AB27_111

— patent US20210253725A1 (BIONTECH, published 2021)
